Data from the DeepSol protein solubility set.

experiment: soluble on expression in E. coli; label from the status in PepcDB or PDB records

Sequence | soluble on expression in E. coli
MQEEVNEKTVSLCITGGKVTARLLKQAMMRFLAAMEKEKAEKARKQQVKGPPDKDYHGKQSLKKLAQQNVQLSNIEITDNNIKAFEKVAKKYGIDFSLKRDKSVDPPRYFVFFKARDVDVMTAAFREFTGKTLNKTKKPSVRKKLQQAIAARSQDKQREREKSKEKQKEPTL | not soluble
MQEKTMKQMQQEVDDYISQFKEGYFSPLAMLARLTEELGELAREVNHYYGEKSKKATEQEKTVEEELGDLLFVLICFANSLGIDLQAAHDRVMDKFRTRDRDRWTRKEEGS | not soluble
MQFYAALFDFPCVPEISGPQPGNDEKSWQRDFLALTNARGTFDPWDTQTCQPCTLEGIVSRNHDAFSVADFSHNVFKYVRKNHVKTTVHWKRHWQRARMAHEFVYGEQS | not soluble
MQIFLLGLDNTTHTLDVDASTTLSAIKGVIGAGEEFSISYGSKVLSEELTLGECQIESLSTLSVNGRLLGGKVHGSLARAGKVRAQTPKVDKQDKKKKKRGRAFRRVQYTRRYVNVASGPGKKRGPNSNS | not soluble
MQIVSVDIGSTWTKAALFTREGDALTLVNHVLTPTTTHHLAKGFFSSLNQVLNVDNALPLLNSGEVALKYSSSAKGGLAVAAMGLVPSITLETAKVTAHSAGAKIAQYYAYKLNRRDIQALEETQPDILLFTGGTDGGEESYGLNNARVLAESKLDCAIIYAGNRDIQDEVQEILGHKDLTIVDNVLPDLDHPNPVAARQAICDIFLKRIVKGKGLDVIVDKTGEEPMPTPWTVFELVKAISNVDHSWKEFMLIDMGGATTDVYSACANTLSPDTVLHGVPEPFVKRTVEGDLGMRVSAVVVGESAKELVNVNFAQQPAQLDAFYHYLRHLVAHPDYLPANAEEKYFDTVLAGLCVGYATERHAGTKKEVCTCVGNVDLQMGRDLTTVRKVVGSGGWLSRASQFDMHHWLKYRELNDDGKRILLPTEFEYYRDSRGLLPLLANVARVDPLAAARTSIQCLTL | not soluble
MQKEPRKVREFRRREQEILDTALKLFLEQGEDSVTVEMIADAVGIGKGTIYKHFKSKAEIYLRLMLDYERDLNELLHSADVDKDKEALSRAYFEFRMRDPQRYRLFDRLEEKVVKGNQVPELVEELHKIRASNFEHLTLLIKGRITEGKLEDVPPYYHYCAAWALVHGAVALYHSPFWSNVLEDQEGFFNFLMDIGVRMGNKRKRDTDVPAEPKPDPDV | not soluble
MQKSVLITGCSSGIGLDSALELKRQGFQILAGCRKPDDVARMNSMGFTGVLIDLDSPESVDRAADEVIALTDNRLYGIFNNAGYGVYGPLSTISREQMEQQFSSNFFGAHQLTMRLLPAMLPHGEGRIVMTSSVMGLISTPGRGAYAASKYALEAWSDALRMELRHTGIKVSLIEPGPIRTRFTDNVNQTQRDKPVENPGIAARFTRDPDAVVAKVRHAFASDKPRLRYPVTLVTWAVMALKRILPGRMLDKILQS | not soluble
MQLDPGRGYDLIGDVHGCAHTLDRLLDLLGYRLQGGVWRHPRRQALFLGDIVDRGPRIREALHRVHAMVDAGEALCIMGNHEFNALGWSTPAAPGSGRQYVREHTPRHARLIKETLEQFEGHDADWRDFLGWFQQLPLFLDAGRFRMVHACWDGELIATLRRQFPDGRISEAFLQESAEPGSFADLACNRLLRGTDMRLPHGATLTSSDGYTRAFFRTKFWVEDEAPRTYGDIVFQPDALPEAIAREPLSEEQKSSLLTYGADEPLLFVGHYWRRGTPAPIRPNLACLDYSAVMYGKLAAYRLDEETRLDRHKFVWVEVKRPEADE | soluble
MQLQKLVNMFGGDLTRRYGQKVHKLTLHGGFSCPNRDGTIGRGGCTFCNVASFADEAQQHRSIAEQLAHQANLVNRAKRYLAYFQAYTSTFAEVQVLRSMYQQAVSQANIVGLCVGTRPDCVPDAVLDLLCEYKDQGYEVWLELGLQTAHDKTLHRINRGHDFACYQRTTQLARQRGLKVCSHLIVGLPGEGQAECLQTLERVVETGVDGIKLHPLHIVKGSIMAKAWEAGRLNGIELEDYTLTAGEMIRHTPPEVIYHRISASARRPTLLAPLWCENRWTGMVELDRYLNEHGVQGSALGRPWLPPTE | soluble
MQLSHRPAETGDLETVAGFPQDRDELFYCYPKAIWPFSVAQLAAAIAERRGSTVAVHDGQVLGFANFYQWQHGDFCALGNMMVAPAARGLGVARYLIGVMENLAREQYKARLMKISCFNANAAGLLLYTQLGYQPRAIAERHDPDGRRVALIQMDKPLEP | soluble
